Data published in publication PMC9167512, “Intradiol ring cleavage dioxygenases from herbivorous spider mites as a new detoxification enzyme family in animals” (BMC Biology, 2022).

B1: TuDOG11 (Tetranychus urticae) (protein)
chain: HLQRPGKFLPHDRSIVDCARYKREANQHTCVLAPFTTEGPYFLPDDLERSDITDGQTGVNLDLNLKLTNAKDCSPLSNYFVHVWQANALGHYSGVNELFPVGFRPKPISGERFLRGYQKTNEDGEVNFKTIIPGWYVGRCIHIHVEVYAKNNTDGNAVNYIGQLYFERDIPSSLRLVEPYSTNVNEITLNDSDGVYLLTHGNDTLIDLVPQESGFRTDYIVAIDPDVSIKYDWLDI
notes: signal peptide removed, N-terminal 6xHis kept, pJExpress 411, E. coli BL21(DE3), codon optimized (ATUM), 25-37 kDa
B2: TuDOG7 (Tetranychus urticae) (protein)
chain: ERSIEILNHDATVIDCARYKREANQHKCVITPFTTEGPYFLPDDYERSDITDGYTGVNLNLTLLLTNAKDCSPLSNYYVHIWNANAMGHYSGVKEFNFFDHPTFRPKPINNLRFLRGYQITNEDGLVNFNTIIPGWYFGRCIHIHVEIYDKNTTDGHAVSYIGQLYFNREMPAALKLIDPYSQNNNELTLNDQDIVFALSRGSDTILELIPEGNGYSASYVLSIDPTVKVENSVLPFEDPRNVSFIEH
B3: TuDOG1 (Tetranychus urticae) (protein)
chain: DVHRRGKFLPHDRTVINCASLNRKAHQHSSVLAPFTTEGPFFLPDDLKRSDITDGQKGIPLELTIKLTNAKDCTPISNFFIHAWQTNATGVYSGIDEDTAPLSGFRPTPVNRDRSLRGYQETDANGEVKFLTILPGWYSGRAIHIHIEVYAKDITDENKITYIGQFYFEHDFPLKLRKIYPYSTNTQRIIFNEQDYYYVHDHGDETTLDLKHNGAKFSSYATVAIDPTVTVHVQ
notes: as for B1
B4: TuDOG16 (Tetranychus urticae) (protein)
chain: HSERPGKFLEHDRSIVNCARYKREANQHTCVLAPFATEGPYFLADDLERSDITDGQTGVNLDLNLKLTNAKDCSPLSGYFVHIWNANALGHYSGVQEFNKFPKQTFRPKPIYDTRWLRGYQVTNEDGEVNFKTIVPGWYYGRCLHIHVEVYSKNTTDTNAITYIGQLYFKRELPVQLKLVEPYSSNQNELKFNEQDKVFNGMHGNDTITELVFEENNAKTSFILALDPTVTTLTNGTVVN
notes: as for B1
B5: TuDOG15 (Tetranychus urticae) (protein)
chain: DHERPGKYLEHDSTVINCARYKREANQHSCVLAPYAVEGPYFLPDDLERSNLAEDKVGVSLDLAIRLVNSNDCTPLTNMFVHVWHADALGVYSGVPDLAELFVERMRQENKTLPPFWGPEGAYEGRRPGGPGGPGGPGGPGGPGDMEMPGRPTPVNNERFLRGYQVTNEAGEVNFKTIIPGWYTGRSLHIHVEVYSKNTTEPGEVNYIGQIFFKDDLPAELKLIEPYSLNQNILVLNPQDGIYNFAHGEQTKIQLENRETGYFGSMTFGINPNAH

Key:
Assay in all cases: purified protein
Details in all cases: 0.1 M PBS pH 7.5, 25 °C, O2 co-substrate (air), Fe enzyme, kcat corrected for iron content
Oc1ccc(Cl)cc1O = test system: Oc1ccc(Cl)cc1O
purified protein [1] = substrate: Oc1ccccc1O
purified protein [2] = substrate: Cc1ccc(O)c(O)c1; format: biochemical, Tetranychus urticae

Molecule | Km (Oc1ccc(Cl)cc1O) [µM] | Vmax (Oc1ccc(Cl)cc1O) [µM/min] | kcat (Oc1ccc(Cl)cc1O) [s⁻¹] | kcat/Km (Oc1ccc(Cl)cc1O) [M⁻¹ s⁻¹] | Km (purified protein [1]) [µM] | Vmax (purified protein [1]) [µM/min] | kcat (purified protein [1]) [s⁻¹] | kcat/Km (purified protein [1]) [M⁻¹ s⁻¹] | Km (purified protein [2]) [µM] | Vmax (purified protein [2]) [µM/min] | kcat (purified protein [2]) [s⁻¹] | kcat/Km (purified protein [2]) [M⁻¹ s⁻¹]
TuDOG11 (Tetranychus urticae) | 25.2 ± 4.6 | 0.09 | 0.00858 ± 0.00095 | 333 ± 200 | – | – | – | – | – | – | – | –
TuDOG15 (Tetranychus urticae) | 72.0 ± 21.3 | 0.62 | 0.0915 ± 0.0133 | 1270 ± 617 | – | – | – | – | – | – | – | –
TuDOG16 (Tetranychus urticae) | 154.3 ± 20.9 | 0.31 | 0.0416 ± 0.00135 | 267 ± 66.7 | – | – | – | – | – | – | – | –
TuDOG1 (Tetranychus urticae) | 21.2 ± 7.4 | 0.08 | 0.0216 ± 0.0027 | 1020 ± 367 | – | – | – | – | – | – | – | –
TuDOG7 (Tetranychus urticae) | 115.2 ± 35.7 | 0.96 | 0.051 ± 0.0122 | 450 ± 350 | – | – | – | – | – | – | – | –
B1 | – | – | – | – | 64.9 ± 24.3 | 0.56 | 0.0534 ± 0.00382 | 817 ± 150 | 153.9 ± 24.6 | 0.58 | 0.0553 ± 0.00382 | 367 ± 150
B2 | – | – | – | – | 74.9 ± 30.9 | 0.42 | 0.0223 ± 0.00318 | 300 ± 100 | 62.2 ± 42.3 | 0.53 | 0.0282 ± 0.0122 | 450 ± 283
B3 | – | – | – | – | 15.2 ± 4.5 | 0.14 | 0.0378 ± 0.0027 | 2480 ± 600 | 15.1 ± 2.7 | 0.12 | 0.0324 ± 0.0027 | 2150 ± 1000
B4 | – | – | – | – | 51.0 ± 23.4 | 0.06 | 0.00805 ± 0.00135 | 150 ± 50 | 52.4 ± 19.6 | 0.14 | 0.0188 ± 0.00268 | 367 ± 133
B5 | – | – | – | – | 91.0 ± 21.2 | 0.09 | 0.0133 ± 0.00148 | 150 ± 66.7 | 117.4 ± 46.5 | 1.77 | 0.261 ± 0.0546 | 2230 ± 1170
